What all share (assay): pulldown
Conditions in all cases: 20 nM protein, 1.5 uM RNA pool; 20 mM HEPES pH 7.8, 70 mM KCl, 10 mM NaCl, 10% glycerol, 2 mM DTT, 0.1 ug/uL BSA; 30 min, 4 C

For data set [1], the target named is T1, nop12 (Schizosaccharomyces pombe) (UniProt O13741).
T1 sequence: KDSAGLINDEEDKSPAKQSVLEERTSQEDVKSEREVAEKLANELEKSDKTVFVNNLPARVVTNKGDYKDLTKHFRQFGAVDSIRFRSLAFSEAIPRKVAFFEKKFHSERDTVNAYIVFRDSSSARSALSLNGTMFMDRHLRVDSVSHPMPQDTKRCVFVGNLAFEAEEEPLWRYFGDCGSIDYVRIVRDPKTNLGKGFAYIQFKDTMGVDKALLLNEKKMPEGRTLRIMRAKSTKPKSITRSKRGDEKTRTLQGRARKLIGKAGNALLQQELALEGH

Data set [2] concerns the target T2, NEMVEDRAFT_v1g214798 (Nematostella vectensis) (UniProt A7SN30).
T2 sequence: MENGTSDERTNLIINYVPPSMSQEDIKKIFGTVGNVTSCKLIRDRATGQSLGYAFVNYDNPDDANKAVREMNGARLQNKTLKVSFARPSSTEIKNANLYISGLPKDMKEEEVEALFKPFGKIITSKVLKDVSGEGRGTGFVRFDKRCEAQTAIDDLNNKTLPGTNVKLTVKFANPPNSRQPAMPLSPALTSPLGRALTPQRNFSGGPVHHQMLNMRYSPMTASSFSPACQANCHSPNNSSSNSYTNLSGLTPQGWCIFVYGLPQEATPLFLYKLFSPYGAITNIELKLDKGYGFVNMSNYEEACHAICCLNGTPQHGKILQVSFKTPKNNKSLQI

A further data set concerns the target T3, MBNL2 (Homo sapiens) (UniProt Q5VZF2).
T3 sequence: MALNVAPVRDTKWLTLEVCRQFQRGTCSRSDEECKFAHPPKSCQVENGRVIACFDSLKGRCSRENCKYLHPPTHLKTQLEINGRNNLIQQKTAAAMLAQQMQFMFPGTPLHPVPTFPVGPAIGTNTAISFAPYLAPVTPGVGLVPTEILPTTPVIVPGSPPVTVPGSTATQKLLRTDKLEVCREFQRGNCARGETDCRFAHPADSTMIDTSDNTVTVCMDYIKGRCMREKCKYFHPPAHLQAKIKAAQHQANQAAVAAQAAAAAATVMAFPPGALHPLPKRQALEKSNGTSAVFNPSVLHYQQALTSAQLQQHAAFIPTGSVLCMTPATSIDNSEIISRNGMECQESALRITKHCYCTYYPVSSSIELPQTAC

The target of data set [3] is T4, Smp_032060 (Schistosoma mansoni) (UniProt G4LYM0).
T4 sequence: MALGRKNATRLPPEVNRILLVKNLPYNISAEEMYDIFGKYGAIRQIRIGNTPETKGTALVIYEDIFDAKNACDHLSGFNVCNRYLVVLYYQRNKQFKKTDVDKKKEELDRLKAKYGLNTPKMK

For data set [4], the target named is T5, DDB_G0270634 (Dictyostelium discoideum) (UniProt Q55D63).
T5 sequence: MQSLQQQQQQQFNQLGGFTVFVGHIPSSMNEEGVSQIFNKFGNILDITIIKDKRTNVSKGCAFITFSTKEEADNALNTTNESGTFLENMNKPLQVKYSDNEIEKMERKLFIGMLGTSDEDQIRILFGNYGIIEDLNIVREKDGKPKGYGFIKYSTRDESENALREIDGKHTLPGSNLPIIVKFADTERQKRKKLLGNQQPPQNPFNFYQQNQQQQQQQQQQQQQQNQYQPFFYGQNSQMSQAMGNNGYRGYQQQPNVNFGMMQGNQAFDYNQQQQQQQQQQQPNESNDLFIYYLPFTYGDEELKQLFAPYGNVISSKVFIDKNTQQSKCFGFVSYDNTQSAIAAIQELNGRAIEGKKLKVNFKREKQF

Data set [5] deals with T6, mei2 (Schizosaccharomyces pombe) (UniProt P08965).
T6 sequence: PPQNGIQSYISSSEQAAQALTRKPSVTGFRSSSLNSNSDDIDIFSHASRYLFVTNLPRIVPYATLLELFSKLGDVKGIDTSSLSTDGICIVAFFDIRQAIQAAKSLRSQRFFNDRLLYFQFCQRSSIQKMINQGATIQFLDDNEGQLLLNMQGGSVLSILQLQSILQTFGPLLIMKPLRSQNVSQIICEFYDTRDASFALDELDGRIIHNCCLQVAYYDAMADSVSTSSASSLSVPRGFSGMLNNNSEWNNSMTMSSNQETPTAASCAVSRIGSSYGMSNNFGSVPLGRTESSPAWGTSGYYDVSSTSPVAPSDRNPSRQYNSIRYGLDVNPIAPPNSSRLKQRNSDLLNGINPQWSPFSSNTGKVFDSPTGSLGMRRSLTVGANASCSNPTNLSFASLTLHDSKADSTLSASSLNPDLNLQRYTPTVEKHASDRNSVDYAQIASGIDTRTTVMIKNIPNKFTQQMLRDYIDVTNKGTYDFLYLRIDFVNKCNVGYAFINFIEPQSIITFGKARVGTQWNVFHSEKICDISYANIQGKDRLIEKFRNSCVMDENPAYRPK

Data set [6] deals with T7, PK25912.1 V2I;D3L;F4R (Cannabis sativa) (UniProt A0A803Q7P0).
T7 sequence: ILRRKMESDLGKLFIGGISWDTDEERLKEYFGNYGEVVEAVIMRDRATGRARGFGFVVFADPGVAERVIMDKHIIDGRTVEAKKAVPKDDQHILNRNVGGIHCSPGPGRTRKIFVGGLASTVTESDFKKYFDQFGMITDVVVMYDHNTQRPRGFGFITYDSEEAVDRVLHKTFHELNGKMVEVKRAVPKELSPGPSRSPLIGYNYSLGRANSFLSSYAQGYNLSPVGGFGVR

Data set [7] deals with SNRPB2 (Meleagris gallopavo) (UniProt G1N364).
Chain of SNRPB2 (Meleagris gallopavo) (G1N364 entry or part of it): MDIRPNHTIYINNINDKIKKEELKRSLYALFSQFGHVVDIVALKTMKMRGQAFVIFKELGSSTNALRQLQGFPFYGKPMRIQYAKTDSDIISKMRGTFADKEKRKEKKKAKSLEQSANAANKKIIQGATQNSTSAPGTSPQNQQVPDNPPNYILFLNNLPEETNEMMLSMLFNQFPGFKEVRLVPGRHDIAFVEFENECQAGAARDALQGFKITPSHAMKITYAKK
In data set [8] the target is T8, PK11774.1 (Cannabis sativa) (UniProt A0A7J6FQM5).
T8 sequence: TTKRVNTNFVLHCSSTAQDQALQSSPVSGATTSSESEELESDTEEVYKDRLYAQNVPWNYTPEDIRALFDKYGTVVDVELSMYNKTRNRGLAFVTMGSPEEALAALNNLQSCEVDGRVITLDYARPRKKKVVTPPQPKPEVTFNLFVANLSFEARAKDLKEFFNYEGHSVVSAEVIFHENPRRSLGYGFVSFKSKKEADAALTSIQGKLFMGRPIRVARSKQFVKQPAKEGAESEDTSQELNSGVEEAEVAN

In turn, GAACG [RNAcompete motif RNCMPT00412] yielded a binding signal (z-score (mean of top ten 7-mers)) in data set [1] of 25.9. The substance UUNUUUU [RNAcompete motif RNCMPT00421] yielded a binding signal (z-score (mean of top ten 7-mers)) in data set [2] of 11.9. GCUUGC [RNAcompete motif RNCMPT00401] showed a binding signal (z-score (mean of top ten 7-mers)) in the data set with MBNL2 (Homo sapiens) of 10.7.

In turn, UUUUNCC [RNAcompete motif RNCMPT00396] came in with a binding signal (z-score (mean of top ten 7-mers)) in data set [3] of 9.57. As for UUUUUGU [RNAcompete motif RNCMPT00399], the binding signal (z-score (mean of top ten 7-mers)) in [4] was determined as 8.63. With UUUUUUG [RNAcompete motif RNCMPT00413], in data set [5], the binding signal (z-score (mean of top ten 7-mers)) was determined as 14.2.

In data set [6], UAGGAA [RNAcompete motif RNCMPT00430] displayed a binding signal (z-score (mean of top ten 7-mers)) of 8.55. Regarding UUGCAC [RNAcompete motif RNCMPT00425], the binding signal (z-score (mean of top ten 7-mers)) in data set [7] is 7.95. As to UGGAGNG [RNAcompete motif RNCMPT00403], the binding signal (z-score (mean of top ten 7-mers)) in data set [8] stood at 10.9.
